Values joined by “and” are separate entries in the source; they are usually repeats but may differ in a detail not shown here. Identical values can stand only once.

This is an account of results in FireProtDB (doi:10.1111/j.1432-1033.1993.tb17904.x).

For the data set the following is noted: Carica papaya, Thermal, DSC, glycine-HCl 5 mM, reversible: yes, whole UniProt chain shown.

B1: Papain wild type, P00784 (protein)
chain: MAMIPSISKLLFVAICLFVYMGLSFGDFSIVGYSQNDLTSTERLIQLFESWMLKHNKIYKNIDEKIYRFEIFKDNLKYIDETNKKNNSYWLGLNVFADMSNDEFKEKYTGSIAGNYTTTELSYEEVLNDGDVNIPEYVDWRQKGAVTPVKNQGSCGSCWAFSAVVTIEGIIKIRTGNLNEYSEQELLDCDRRSYGCNGGYPWSALQLVAQYGIHYRNTYPYEGVQRYCRSREKGPYAAKTDGVRQVQPYNEGALLYSIANQPVSVVLEAAGKDFQLYRGGIFVGPCGNKVDHAVAAVGYGPNYILIKNSWGTGWGENGYIRIKRGTGNSYGVCGLYTSSFYPVKN
In general, Tm refers to the temperature at which the thermal transition is half complete. Take B1: the “unfolding enthalpy (calorimetric)” value reads like this: (pH 1.9) 119 kcal/mol and 98.7 kcal/mol; (pH 2.4) 133 kcal/mol and 143 kcal/mol and 111 kcal/mol; (pH 2.9) 154 kcal/mol and 162 kcal/mol; (pH 3.5) 206 kcal/mol and 226 kcal/mol and 189 kcal/mol; (pH 3.9) 229 kcal/mol and 232 kcal/mol and 198 kcal/mol. Moreover, the “unfolding enthalpy (van 't Hoff)” value (pH 1.9) was 65.2 kcal/mol and 50.6 kcal/mol; the “unfolding enthalpy (van 't Hoff)” value (pH 2.4) was 72.6 kcal/mol and 82.3 kcal/mol and 62.9 kcal/mol; the “unfolding enthalpy (van 't Hoff)” value (pH 2.9) was 79.6 kcal/mol and 89.2 kcal/mol; the “unfolding enthalpy (van 't Hoff)” value (pH 3.5) is 113 kcal/mol and 118 kcal/mol and 98.9 kcal/mol; the “unfolding enthalpy (van 't Hoff)” value (pH 3.9) was 132 kcal/mol and 130 kcal/mol and 114 kcal/mol. Also, the Tm (pH 2.9) was 69.5 °C and 70.4 °C.
